According to PMC5275738:

Target: SF3b145(598–631) fragment, tag-free recombinant (isotope-labeled) (human) (UniProt Q13435)
Assay: NMR titration

UniProt Q13435, sequence (Q13435 598-631): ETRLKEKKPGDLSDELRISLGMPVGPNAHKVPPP

Kd: 50 µM
Substance: human SF3b49 RRM1 (Pro5–Leu96), tag-free (from UniProt Q15427 5-96) (domain or fragment)
